Assay results from patent publication US20180362643A1 (Amgen, published 2018).
Ends that are not written are not given here.

T1: full-length human PACAP38 (human, not fully specified)
T1 peptide: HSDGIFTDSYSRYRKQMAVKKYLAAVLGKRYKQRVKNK

T2: amino terminal PACAP38 peptide (amino acids 1-13) (human)
T2 construct: also called N-terminal Peptide; N-terminal PACAP peptide
T2 peptide: HSDGIFTDSYSRY

T3: human PACAP27 (human, not fully specified)
T3 construct: Natural isoform, amino acids 1-27 of PACAP38; also called peptide No. 1 (amino acids 1-27 of PACAP38)
T3 peptide: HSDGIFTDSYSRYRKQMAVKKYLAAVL

T4: PACAP38 peptide fragment 6-35 (human)
T4 construct: also called peptide No. 4
T4 peptide: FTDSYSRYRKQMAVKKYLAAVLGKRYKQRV

T5: PACAP38 peptide fragment 11-27 (human)
T5 construct: also called peptide No. 8
T5 peptide: SRYRKQMAVKKYLAAVL

T6: PACAP38 peptide fragment 4-27 (human)
T6 construct: also called peptide No. 9
T6 peptide: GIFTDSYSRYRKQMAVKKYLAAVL

T7: PACAP38 peptide fragment 6-36 (human)
T7 construct: also called peptide No. 12
T7 peptide: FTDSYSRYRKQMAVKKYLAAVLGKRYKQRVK

T8: 31-38 (ends and bridges not checked)
T8 construct: also called PACAP38 peptide fragment 31-38; peptide No. 5
T8 peptide: YKQRVKNK

T9: 30-37
T9 construct: also called PACAP38 peptide fragment 30-37; peptide No. 19
T9 peptide: RYKQRVKN

T10: PACAP38 peptide fragment 27-38 (human, ends and bridges not checked)
T10 construct: also called peptide No. 6
T10 peptide: LGKRYKQRVKNK

T11: PACAP38 peptide fragment 26-33 (human)
T11 construct: also called peptide No. 2
T11 peptide: VLGKRYKQ

B1: mAb2 (antibody, V domains shown)
VH: QSLEESGGGLVQPEGSLTLTCTASGFSFNSSSYMCWVRQAPGKGLEWIGCIFTGSSGNTYYATWAQGRFTISKTSTTVTLEMTSLTAADTATYFCARDRAYFLVGYFYATYYFDLWGPGTLVTVSS
VL: DVVMTQTPSPVSAQVGGTVTINCQASESIDSDLSWYQQKPGQPPKLLIYRTFTLESGVPSRFKGSGSGTDYTLTISDLECADAAIYYCQCTDGSSISGSYGWDAFGGGTEVVVKG
notes: Rabbit monoclonal antibody (SLAM), recombinant; also called monoclonal anti-PACAP antibody 2; 2 (c81)
B2: mAb6 (antibody, V domains shown)
VH: QLEESGGGLVQPGASLTLTCTTSGFSLSDNYLCWVRQAPGRGLEWVACIGIVLRSTGATYYASWAEGRFTISKTSPTTVTLEMTSLTAADTATYFCALDLGYGGPLWGPGTLVTVSS
VL: AQVLTQTPASVSAAVGGTVTINCQASQSVYNNKNLAWYQQKPGQPPKLLIYFSSTLASGVPSRFRGSGSGTQFTLTISGVQCGDAATYYCLGEFGSIWAFGGGTEVVVKG
notes: Rabbit monoclonal antibody (SLAM), recombinant; also called monoclonal anti-PACAP antibody 6; 6 (c55)
B3: mAb5 (antibody, V domains shown)
VH: QSVEESGGRLVTPGTPLTLTCTVSGFSLSTYNMCWVRQAPGKGLEWVGFINSDDSAYYASWAKGRFTFSKTSTTVDLKIASPTTEDTATYFCARYDWDYYYSRLDLWGPGTLVTVSS
VL: DIVLTQTPASVSAAVGGTVSISCQSSESVYNNNYLSWFQQKPGQPPKLLIYGASTLASGVPSRFEGSGSGTQFTLTISDVQCDDAATYYCLGDYIIIENIFGGGTEVVVKG
notes: Rabbit monoclonal antibody (SLAM), recombinant; also called monoclonal anti-PACAP antibody 5; 5 (c71)

Experiments:
[1] = molecular target: T1, full-length human PACAP38; test: cell-based or functional assay
[2] = molecular target: T2, amino terminal PACAP38 peptide (amino …); test: ELISA screen of B-cell culture supernatant; N-terminal peptide at 500 ng/mL
human PACAP27 [3] = molecular target: T3, human PACAP27; test: SPR (Biacore 3000), solution competition with the peptide for antibody binding to immobilised full-length PACAP38; % inhibition
Method: (§1) The binding epitopes of anti-PACAP antibodies were evaluated by using the Biacore 3000 biosensor-based instrument (GE Healthcare USA). The Biacore 3000 instrument utilizes surface plasmon resonance (SPR) technology to measure mass increase on the sensor-chip surface. The binding interactions are measured in real-time and recorded as Response Units (RU). Each binding profile (cycle) is stored in a “sensorgram” in real-time. Generally, Biacore technology entails immobilizing a ligand of interest on to a flow-cell of the sensor-chip via a coupling chemistry. The analyte (e.g. putative binding partner to the ligand of interest) is injected across the immobilized ligand allowing it to bind to the ligand-immobilized surface. The magnitude of the response is directly proportional to the mass increase on the immobilized surface due to the binding of the analyte.
(§2) In this experiment, various peptide fragments of PACAP38 were incubated with each of the six antibodies (mAb1, mAb2, mAb3, mAb4, mAb5, and mAb6) described in Example 2 and evaluated for their ability to inhibit binding of the antibodies to full-length PACAP38 immobilized on the sensor-chip. The binding epitopes for each of the antibodies were deduced from the set of peptides that were able to inhibit the binding of each antibody to full-length PACAP38.
(§3) Each of the six anti-PACAP antibodies was incubated at a 1:200 molar ratio (Ab: peptide fragment) with each of the peptide fragments in Table 9 at an ambient temperature for 2 hours prior to analysis. […] A second control containing 6.5 nM antibody was prepared in sample diluent to be used as the untreated control sample for each antibody. Full-length PACAP38, buffer, and each peptide fragment were also tested to evaluate non-specific binding to the immobilized PACAP38 surface.

[4] = molecular target: T2, amino terminal PACAP38 peptide (amino …); test: as above
Method: as §1, §2, §3

[5] = molecular target: T4, PACAP38 peptide fragment 6-35; test: as above
Method: as §1, §2, §3

[6] = molecular target: T5, PACAP38 peptide fragment 11-27; test: as above
Method: as §1, §2, §3

[7] = molecular target: T6, PACAP38 peptide fragment 4-27; test: as above
Method: as §1, §2, §3

[8] = molecular target: T7, PACAP38 peptide fragment 6-36; test: as above
Method: as §1, §2, §3

31-38 = molecular target: T8, 31-38; test: SPR (Biacore 3000), solution competition: antibody pre-incubated 2 h with the peptide at 1:200 molar ratio (Ab:peptide), then injected over immobilised full-length PACAP38; readout % inhibition of antibody binding (filing counts >50 % as reactive)
Method: as §1, §2, §3

30-37 = molecular target: T9, 30-37; test: as above
Method: as §1, §2, §3

[9] = molecular target: T10, PACAP38 peptide fragment 27-38; test: SPR (Biacore 3000), solution competition with the peptide for antibody binding to immobilised full-length PACAP38; % inhibition
Method: as §1, §2, §3

[10] = molecular target: T4, PACAP38 peptide fragment 6-35; test: SPR (Biacore 3000), solution competition: antibody pre-incubated 2 h with the peptide at 1:200 molar ratio (Ab:peptide), then injected over immobilised full-length PACAP38; readout % inhibition of antibody binding (filing counts >50 % as reactive)
Method: as §1, §2, §3

[11] = molecular target: T5, PACAP38 peptide fragment 11-27; test: as above
Method: as §1, §2, §3

[12] = molecular target: T7, PACAP38 peptide fragment 6-36; test: as above
Method: as §1, §2, §3

human PACAP27 [13] = molecular target: T3, human PACAP27; test: cell-based or functional assay
[14] = molecular target: T11, PACAP38 peptide fragment 26-33; test: SPR (Biacore 3000) solution competition against immobilised PACAP38
[15] = molecular target: T10, PACAP38 peptide fragment 27-38; test: as above

Binder | IC50, inhibition of PACAP38-induced activation of the PAC1 receptor (cAMP assay, CRL-2266 cells) [1] | potency relative to PAC1 Ab, inhibition of PACAP38-induced PAC1 receptor activation (cAMP assay) [1] | Optical Density [2] | binding result (human PACAP27 [3]) | binding result [4] | binding result [5] | binding result [6] | binding result [7] | binding result [8] | binding result (31-38) | binding result (30-37) | binding result [9] | binding result [10] | binding result [11] | binding result [12] | IC50: inhibition of PACAP27 (10 pM)-induced activation of human PAC1 receptor, cAMP assay in SH-SY5Y (CRL-2266) cells, POC versus antibody concentration (human PACAP27 [13]) | binding result [14] | binding result [15]
B1 | < 1 nM | ~10 fold | 0.06 OD | no binding (tested: 1:200 molar ratio (Ab:peptide)) | no binding (tested: 1:200 molar ratio (Ab:peptide)) | no binding (tested: 1:200 molar ratio (Ab:peptide)) | no binding (tested: 1:200 molar ratio (Ab:peptide)) | no binding (tested: 1:200 molar ratio (Ab:peptide)) | no binding (tested: 1:200 molar ratio (Ab:peptide)) | binds | binds | – | – | – | – | – | – | –
B2 | – | – | – | – | – | – | – | – | – | – | – | no binding (tested: 1:200 molar ratio (Ab:peptide)) | binds | binds | binds | – | – | –
B3 | – | – | – | – | – | – | – | – | – | – | – | – | – | – | binds | 41 nM | no binding (tested: 1:200 molar ratio (Ab: peptide fragment)) | no binding (tested: 1:200 molar ratio (Ab: peptide fragment))
